Experimental data from the Human Domainome abundance scans (Beltran et al. 2025).
± gives the uncertainty stated by the source.

B1: Cell division cycle and apoptosis regulator protein 1, residues 625 to 674; numbered along this chain, Q8IX12 (parent)
chain: ISTPTHWSKLDPKTMKVNDLRKELESRALSSKGLKSQLIARLTKQLKVEE

Variants of: B1
Assay: abundance fitness (aPCA) (normalised: wild type 0, dead -1); higher = more abundant; growth selection in yeast, the domain comes from the species named
Details: Homo sapiens

Variant	abundance fitness
S26P	-0.61 ± 0.056
S26M	0.073 ± 0.051
S26F	0.028 ± 0.06
S26C	0.08 ± 0.04
S26H	0.053 ± 0.074
S26N	0.025 ± 0.037
S26Q	0.001 ± 0.061
S26W	0.047 ± 0.029
S26R	0.118 ± 0.035
S26A	0.088 ± 0.048
S26E	0.026 ± 0.039
S26D	0.031 ± 0.062
S26T	0.106 ± 0.047
S26I	-0.012 ± 0.068
S26L	0.118 ± 0.038
S26K	0.197 ± 0.059
S26Y	0.044 ± 0.065
S26G	0.089 ± 0.035
G33P	-1.02 ± 0.077
G33T	-1.03 ± 0.055
G33I	-1.04 ± 0.25
G33H	-0.932 ± 0.14
G33C	-1 ± 0.073
G33K	-0.939 ± 0.071

Variant	abundance fitness
G33N	-1.2 ± 0.3
G33V	-0.919 ± 0.055
G33M	-1.03 ± 0.13
G33Y	-1.03 ± 0.17
G33R	-1.04 ± 0.046
G33F	-0.98 ± 0.14
G33Q	-0.819 ± 0.05
G33L	-1.04 ± 0.052
G33A	-0.891 ± 0.059
G33S	-0.934 ± 0.063
G33E	-0.857 ± 0.058
G33W	-1.07 ± 0.073
G33D	-0.62 ± 0.079
L34H	-0.026 ± 0.043
L34K	0.079 ± 0.038
L34M	-0.072 ± 0.051
L34A	-0.111 ± 0.03
L34I	-0.069 ± 0.041
L34D	-0.062 ± 0.067
L34P	-0.011 ± 0.055
L34N	-0.157 ± 0.067
L34E	-0.113 ± 0.031
L34F	-0.195 ± 0.052
L34C	-0.075 ± 0.043

Variant	abundance fitness
S30I	-0.185 ± 0.071
S30M	-0.067 ± 0.035
S30K	0.037 ± 0.047
S30P	0.036 ± 0.048
S30Q	-0.148 ± 0.045
S30Y	-0.141 ± 0.048
S30D	0.016 ± 0.059
S30A	-0.05 ± 0.045
S30T	-0.034 ± 0.033
S30H	-0.152 ± 0.064
S30C	0.069 ± 0.048
S30E	-0.071 ± 0.043
S30L	-0.184 ± 0.029
S30W	-0.283 ± 0.043
S30V	-0.047 ± 0.034
S30N	0.126 ± 0.055
S30G	-0.026 ± 0.037
V17Y	-0.054 ± 0.068
V17I	0.013 ± 0.046
V17S	-0.036 ± 0.037
V17N	0.249 ± 0.06
V17M	0.065 ± 0.061
V17W	-0.092 ± 0.051
V17C	0.115 ± 0.049

Variant	abundance fitness
V17G	-0.146 ± 0.031
V17R	-0.139 ± 0.035
V17D	-0.114 ± 0.048
V17P	-0.182 ± 0.042
V17K	0.022 ± 0.065
V17H	-0.165 ± 0.066
V17A	-0.093 ± 0.028
V17Q	-0.082 ± 0.053
V17L	0.026 ± 0.034
V17F	-0.071 ± 0.057
L20D	-0.741 ± 0.083
L20S	-0.859 ± 0.058
L20E	-0.788 ± 0.052
L20G	-0.89 ± 0.044
L20A	-0.618 ± 0.035
L20I	0.136 ± 0.063
L20H	-0.752 ± 0.16
L20Q	-0.621 ± 0.076
L20V	-0.284 ± 0.039
L20W	-0.833 ± 0.09
L20C	-0.416 ± 0.077
L20M	-0.115 ± 0.032
L20Y	-0.751 ± 0.11
L20P	-0.899 ± 0.092

Variant	abundance fitness
L20N	-1.08 ± 0.22
L20F	-0.65 ± 0.067
L20T	-0.727 ± 0.06
A28D	0.129 ± 0.064
A28R	0.151 ± 0.029
A28M	0.072 ± 0.036
A28W	-0.053 ± 0.041
A28C	0.054 ± 0.057
A28H	-0.108 ± 0.076
A28E	0.038 ± 0.055
A28V	-0.016 ± 0.033
A28T	0.085 ± 0.037
A28G	0.145 ± 0.033
A28F	0.003 ± 0.052
A28S	0.138 ± 0.031
A28I	0.074 ± 0.064
A28L	0.04 ± 0.042
A28Q	0.151 ± 0.042
A28P	-0.782 ± 0.064
A28Y	0.181 ± 0.069
N18W	-0.015 ± 0.03
N18K	0.124 ± 0.029
N18A	0.072 ± 0.029
N18C	0.051 ± 0.036

Variant	abundance fitness
N18V	0.05 ± 0.027
N18I	0.077 ± 0.027
N18L	0.113 ± 0.028
N18Y	-0.036 ± 0.029
N18S	0.081 ± 0.028
N18H	0.042 ± 0.029
N18G	0.019 ± 0.032
N18P	0.072 ± 0.027
N18F	-0.056 ± 0.038
N18Q	0.085 ± 0.029
N18R	0.079 ± 0.028
N18D	-0.038 ± 0.033
N18M	0.06 ± 0.031
K16C	-0.048 ± 0.066
K16D	-0.068 ± 0.057
K16H	0.061 ± 0.076
K16V	-0.228 ± 0.049
K16A	-0.227 ± 0.035
K16R	-0.173 ± 0.036
K16Y	-0.153 ± 0.051
K16T	-0.142 ± 0.056
K16P	-0.15 ± 0.038
K16G	-0.059 ± 0.041
K16S	-0.011 ± 0.038

Variant	abundance fitness
K16E	-0.066 ± 0.039
K16I	-0.127 ± 0.052
K16M	-0.24 ± 0.052
K16F	-0.191 ± 0.077
K16N	0.033 ± 0.06
K16W	-0.354 ± 0.041
K16L	-0.061 ± 0.053
L29W	-0.746 ± 0.039
L29N	-0.552 ± 0.083
L29G	-0.853 ± 0.04
L29V	-0.476 ± 0.034
L29F	-0.112 ± 0.058
L29P	-0.86 ± 0.098
L29Y	-0.384 ± 0.048
L29Q	-0.172 ± 0.051
L29S	-0.368 ± 0.031
L29I	0.045 ± 0.054
L29K	-0.226 ± 0.056
L29R	-0.213 ± 0.031
L29E	-0.46 ± 0.046
L29H	-0.286 ± 0.066
L29M	-0.021 ± 0.052
L29D	-0.732 ± 0.1
L29A	-0.899 ± 0.059

Variant	abundance fitness
S31K	-0.132 ± 0.057
S31P	-0.062 ± 0.045
S31E	-0.106 ± 0.044
S31V	-0.041 ± 0.041
S31F	-0.101 ± 0.053
S31M	-0.066 ± 0.038
S31D	-0.156 ± 0.05
S31N	-0.095 ± 0.059
S31H	0.031 ± 0.059
S31T	-0.052 ± 0.038
S31Y	-0.123 ± 0.071
S31W	-0.097 ± 0.029
S31C	-0.013 ± 0.046
S31G	0.014 ± 0.027
S31I	0.047 ± 0.06
S31A	0.005 ± 0.034
S31Q	0.079 ± 0.032
S31L	-0.084 ± 0.032
K22E	-0.242 ± 0.059
K22C	-0.134 ± 0.05
K22Q	-0.136 ± 0.057
K22F	-0.16 ± 0.06
K22S	-0.004 ± 0.043
K22M	-0.028 ± 0.052

Variant	abundance fitness
K22D	-0.239 ± 0.075
K22W	-0.209 ± 0.036
K22G	-0.233 ± 0.038
K22P	-0.491 ± 0.035
K22H	0.024 ± 0.039
K22R	-0.023 ± 0.03
K22A	-0.148 ± 0.044
K22I	-0.065 ± 0.047
K22N	-0.097 ± 0.04
L24V	-0.685 ± 0.038
L24P	-0.778 ± 0.067
L24F	-0.825 ± 0.068
L24Q	-0.891 ± 0.071
L24C	-0.393 ± 0.054
L24S	-0.806 ± 0.051
L24H	-0.742 ± 0.15
L24E	-0.665 ± 0.053
L24Y	-1.01 ± 0.19
L24D	-0.881 ± 0.13
L24M	-0.678 ± 0.062
L24T	-0.77 ± 0.036
L24I	-0.586 ± 0.083
L24G	-0.905 ± 0.064
L24R	-0.87 ± 0.052

Variant	abundance fitness
L24A	-0.829 ± 0.036
L24N	-0.991 ± 0.13
L24W	-1.11 ± 0.15
L24K	-0.879 ± 0.056
M15F	-1.02 ± 0.092
M15G	-0.94 ± 0.046
M15R	-0.758 ± 0.057
M15L	-0.172 ± 0.034
M15D	-0.775 ± 0.057
M15N	-0.942 ± 0.13
M15W	-0.899 ± 0.062
M15H	-0.996 ± 0.059
M15Y	-0.926 ± 0.096
M15Q	-0.679 ± 0.049
M15I	-0.711 ± 0.072
M15K	-0.668 ± 0.091
M15V	-0.745 ± 0.058
M15E	-0.949 ± 0.11
M15P	-0.83 ± 0.12
M15S	-0.75 ± 0.036
E23R	-1.07 ± 0.062
E23V	-0.924 ± 0.081
E23P	-0.805 ± 0.1
E23L	-0.913 ± 0.07

Variant	abundance fitness
E23W	-0.661 ± 0.054
E23N	-0.563 ± 0.16
E23M	-0.965 ± 0.13
E23F	-0.737 ± 0.076
E23D	-0.916 ± 0.18
E23C	-0.677 ± 0.065
E23H	-0.48 ± 0.067
E23Q	-0.228 ± 0.06
E23K	-1 ± 0.061
E23S	-0.617 ± 0.048
E23T	-0.672 ± 0.05
E23G	-0.904 ± 0.061
R27V	-0.678 ± 0.055
R27L	-0.805 ± 0.049
R27Y	-0.995 ± 0.21
R27Q	-0.845 ± 0.098
R27K	-0.822 ± 0.089
R27T	-0.948 ± 0.14
R27H	-0.765 ± 0.11
R27D	-0.747 ± 0.06
R27N	-0.871 ± 0.1
R27I	-1.1 ± 0.14
R27S	-0.818 ± 0.043
R27C	-0.776 ± 0.083

Variant	abundance fitness
R27P	-0.784 ± 0.12
R27A	-0.713 ± 0.064
R27F	-1.02 ± 0.16
R27M	-0.591 ± 0.082
R27G	-0.743 ± 0.045
E25K	0.002 ± 0.043
E25S	-0.539 ± 0.058
E25F	-0.568 ± 0.038
E25D	-0.581 ± 0.081
E25I	-0.274 ± 0.066
E25P	-1.02 ± 0.12
E25Q	-0.097 ± 0.035
E25M	-0.076 ± 0.044
E25V	-0.155 ± 0.044
E25A	-0.443 ± 0.056
E25T	-0.18 ± 0.047
E25Y	-0.799 ± 0.15
E25W	-0.304 ± 0.049
E25R	-0.154 ± 0.043
R21E	-0.541 ± 0.036
R21Q	-0.259 ± 0.087
R21P	-0.682 ± 0.098
R21D	-1 ± 0.17
R21K	-0.117 ± 0.072

Variant	abundance fitness
R21C	-0.039 ± 0.048
R21V	-0.106 ± 0.037
R21F	-0.419 ± 0.042
R21L	-0.215 ± 0.039
R21A	-0.192 ± 0.045
R21S	-0.191 ± 0.049
R21W	-0.53 ± 0.055
R21I	-0.006 ± 0.07
R21M	0.036 ± 0.049
R21Y	-0.256 ± 0.044
R21T	-0.155 ± 0.037
R21G	-0.603 ± 0.04
R21H	-0.199 ± 0.068
K32N	-0.143 ± 0.038
K32A	-0.153 ± 0.043
K32D	-0.092 ± 0.043
K32V	-0.233 ± 0.032
K32T	-0.066 ± 0.049
K32H	-0.05 ± 0.062
K32Y	-0.138 ± 0.045
K32W	-0.089 ± 0.049
K32C	-0.18 ± 0.036
K32S	-0.142 ± 0.042
K32G	-0.131 ± 0.045

Variant	abundance fitness
K32E	-0.104 ± 0.032
K32F	-0.213 ± 0.047
K32L	-0.071 ± 0.036
K32R	-0.105 ± 0.034
D19V	-0.167 ± 0.031
D19T	-0.047 ± 0.03
D19F	-0.035 ± 0.043
D19G	-0.196 ± 0.035
D19C	-0.02 ± 0.037
D19E	-0.275 ± 0.046
D19L	0.021 ± 0.029
D19N	0.063 ± 0.032
D19M	0.031 ± 0.033
D19S	0.038 ± 0.026
D19Y	-0.023 ± 0.032
D19A	-0.015 ± 0.03
D19R	-0.073 ± 0.029
D19Q	0.033 ± 0.03
D19H	0.045 ± 0.034
D19I	-0.044 ± 0.034
D19P	-0.334 ± 0.034
D19K	-0.33 ± 0.035
